The target of assay [1] is T1, PRO5801 (human IL-17RH1 receptor) (Homo sapiens, UniProt Q9NRM6).
T1 sequence (Q9NRM6 18-502): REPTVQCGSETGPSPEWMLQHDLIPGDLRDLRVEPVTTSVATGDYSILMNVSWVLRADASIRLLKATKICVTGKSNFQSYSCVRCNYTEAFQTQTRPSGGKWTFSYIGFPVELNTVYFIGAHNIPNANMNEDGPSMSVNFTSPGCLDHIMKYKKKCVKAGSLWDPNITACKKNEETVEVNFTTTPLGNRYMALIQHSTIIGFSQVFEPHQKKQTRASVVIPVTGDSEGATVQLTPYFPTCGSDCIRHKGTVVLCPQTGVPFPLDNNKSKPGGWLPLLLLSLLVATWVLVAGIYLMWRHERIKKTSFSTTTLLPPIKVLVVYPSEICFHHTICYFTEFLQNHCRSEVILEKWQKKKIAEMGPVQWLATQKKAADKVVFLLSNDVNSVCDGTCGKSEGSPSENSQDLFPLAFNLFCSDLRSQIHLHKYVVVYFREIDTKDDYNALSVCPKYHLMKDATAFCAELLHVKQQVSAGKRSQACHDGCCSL
The assay is described as follows: Receptor/ligand interaction screening assay (immunoadhesin). The assay is classed as binding. How it is done: (§1) In general, the assay is performed as follows. A PRO polypeptide of the present invention suspected of being a ligand for a receptor is expressed as a fusion protein containing the Fc domain of human IgG (an immunoadhesin). Receptor-ligand binding is detected by allowing interaction of the immunoadhesin polypeptide with cells (e.g. Cos cells) expressing candidate PRO polypeptide receptors and visualization of bound immunoadhesin with fluorescent reagents directed toward the Fc fusion domain and examination by microscope. Cells expressing candidate receptors are produced by transient transfection, in parallel, of defined subsets of a library of cDNA expression vectors encoding PRO polypeptides that may function as receptor molecules. Cells are then incubated for 1 hour in the presence of the PRO polypeptide immunoadhesin being tested for possible receptor binding. The cells are then washed and fixed with paraformaldehyde. The cells are then incubated with fluorescent conjugated antibody directed against the Fc portion of the PRO polypeptide immunoadhesin (e.g. FITC conjugated goat anti-human-Fc antibody). The cells are then washed again and examined by microscope. A positive interaction is judged by the presence of fluorescent labeling of cells transfected with cDNA encoding a particular PRO polypeptide receptor or pool of receptors and an absence of similar fluorescent labeling of similarly prepared cells that have been transfected with other cDNA or pools of cDNA. If a defined pool of cDNA expression vectors is judged to be positive for interaction with a PRO polypeptide immunoadhesin, the individual cDNA species that comprise the pool are tested individually (the pool is “broken down”) to determine the specific cDNA that encodes a receptor able to interact with the PRO polypeptide immunoadhesin.
(§2) In another embodiment of this assay, an epitope-tagged potential ligand PRO polypeptide (e.g., 8 histidine “His” tag) is allowed to interact with a panel of potential receptor PRO polypeptide molecules that have been expressed as fusions with the Fc domain of human IgG (immunoadhesins). Following a 1 hour co-incubation with the epitope tagged PRO polypeptide, the candidate receptors are each immunoprecipitated with protein A beads and the beads are washed. Potential ligand interaction is determined by Western blot analysis of the immunoprecipitated complexes with antibody directed towards the epitope tag. An interaction is judged to occur if a band of the anticipated molecular weight of the epitope tagged protein is observed in the Western blot analysis with a candidate receptor, but is not observed to occur with the other members of the panel of potential receptors.

For assay [2], the target named is human IL-17 receptor (IL-17R, PRO1) (Homo sapiens, UniProt Q96F46). Described as above. It is filed as binding. How it is done: as §1, §2
Assay [3] has as its target T2, human IL-17 receptor (IL-17R, PRO1) as tested in the receptor/ligand screen (human, UniProt Q96F46 33-320, limits assumed).
T2 construct: also called IL-7R (as misprinted)
The assay is described as follows: receptor/ligand screen (immunoadhesin on transfected cells or co-immunoprecipitation). The source says: (§3) A PRO polypeptide of the present invention suspected of being a ligand for a receptor is expressed as a fusion protein containing the Fc domain of human IgG (an immunoadhesin). Receptor-ligand binding is detected by allowing interaction of the immunoadhesin polypeptide with cells (e.g. Cos cells) expressing candidate PRO polypeptide receptors and visualization of bound immunoadhesin with fluorescent reagents directed toward the Fc fusion domain and examination by microscope. Cells expressing candidate receptors are produced by transient transfection, in parallel, of defined subsets of a library of cDNA expression vectors encoding PRO polypeptides that may function as receptor molecules. Cells are then incubated for 1 hour in the presence of the PRO polypeptide immunoadhesin being tested for possible receptor binding. The cells are then washed and fixed with paraformaldehyde. […]
(§4) In another embodiment of this assay, an epitope-tagged potential ligand PRO polypeptide (e.g., 8 histidine “His” tag) is allowed to interact with a panel of potential receptor PRO polypeptide molecules that have been expressed as fusions with the Fc domain of human IgG (immunoadhesins). […] Potential ligand interaction is determined by Western blot analysis of the immunoprecipitated complexes with antibody directed towards the epitope tag.

Assay [4] has as its target T3, PRO5801 (human IL-17RH1 receptor) as tested in the receptor/ligand screen (human, UniProt Q9NRM6 18-292, limits assumed).
T3 sequence (looked up): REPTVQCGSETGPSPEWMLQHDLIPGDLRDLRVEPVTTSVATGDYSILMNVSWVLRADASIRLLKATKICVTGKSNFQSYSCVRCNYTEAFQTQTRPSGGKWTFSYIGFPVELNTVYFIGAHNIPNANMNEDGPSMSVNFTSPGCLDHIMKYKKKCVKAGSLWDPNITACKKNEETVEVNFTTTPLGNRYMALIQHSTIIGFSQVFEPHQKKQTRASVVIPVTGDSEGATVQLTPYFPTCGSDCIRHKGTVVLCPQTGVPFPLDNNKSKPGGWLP
Described as above.
Text: as §3, §4

Here are results for one molecule from patent US20070160576A1, “IL-17A/F heterologous polypeptides and therapeutic uses thereof” (Genentech, Inc., priority 2001, published 2007).

B1: PRO1031 (human IL-17B ligand) (ligand, UniProt Q9UHF5 21-180, looked up)
chain: QPRSPKSKRKGQGRPGPLAPGPHQVPLDLVSRMKPYARMEEYERNIEEMVAQLRNSSELAQRKCEVNLQLWMSNKRSLSPWGYSINHDPSRIPVDLPEARCLCLGCVNPFTMQEDRSMVSVPVFSQVPVRRRLCPPPPRTGPCRQRAVMETIAVGCTCIF
For B1, the “binding to IL-17RH1 receptor (PRO5801)” value in assay [1] is recorded as “binds to”. For the same molecule, the “binding to human IL-17 receptor (IL-17R, PRO1)” value in assay [2] is listed as “do not bind”. Moreover, the values for the binding result in assay [3] and in assay [4] were “no binding” and “binds”, respectively.
